Data set [1] relates to E. coli SHuffle strain. The data set is described as follows: Recapitulation of growth restoration with TS-PTDH variants in SHuffle strain. The conditions noted are these: spotted onto agar selection plates. Type of data set: cell-based, Escherichia coli. As for the experimental part: Selection of TS-PTDH Library. A total of 50 μL pre-made SHuffle/pLZ311 or SHuffle/pLZ312 electro-competent cells were transformed with 2 μL TS-PTDH A155N-E175-A176-L208 NNK library DNA (pLZ316) via electroporation as described above. After rescue in SOC media for 1 h, cultures were combined in 10 mL 2×YT with 10 g/L glucose, 0.5% arabinose, kanamycin and ampicillin. 0.2, or 1 μL of culture was immediately taken from the culture and plated on an 2×YT agar plates with kanamycin and ampicillin. The plate was incubated at 37° C. overnight, and the number of colonies formed was counted to estimate the library size. The liquid cultures were incubated at 37° C. with shaking for 10 h. Cells (1 mL) were washed 3 times and re-suspended in M9 Buffer. Targeted serial dilutions of cells were prepared in M9 buffer and 5 μL aliquots were dispensed in series on an agar plate of M9 selection media containing 0.5 mM diamide, 5 or 1 g/L yeast extract, 10 g/L glucose, 0.5% arabinose, 0.5 mM IPTG, 10 g/L sodium phosphite, kanamycin, ampicillin, and 5 mM NMN^+. Selection plates were incubated at 37° C., and photographs were taken to document growth progress. The independent transformants sampled was calculated as 2.4×10^6 and 2.5×10^6 colonies when plated on 5 and 1 g/L yeast extract, respectively. TS-PTDH and the template of the library, TS-PTDH A155N, were cultured in the same conditions as controls. The colonies were numbered by the order of appearance. The selected cells were re-streaked on fresh agar plate with identical media and incubated until single colonies formed on the plate. Variants that cannot forma single colony may be false positives. After extracting the plasmids from each re-streaked colony, the chosen TS-PTDH variants were amplified and moved into the pQElac vector containing a N-terminal 6×His tag for protein purification and characterization. […] 2 μL of a serial dilution of cells were deposited onto a growth selection plate and grown at 37° C.

The nature of data set [2]: Steady-state kinetics of TS-PTDH variants with NMN^+. In kind it is biochemical. The conditions noted are these: for Km / NMN^+ kcat: 100 mM MOPS, pH 7.25, 10 mM sodium phosphite; for increased catalytic efficiency (kcat/Km) for NMN^+ compared to TS-PTDH A155N: vs parent enzyme TS-PTDH A155N. How it is done: (§1) Purification and Characterization of TS-PTDH Variants. The E. coli BL21(DE3) strains harboring pQElac plasmids encoding the TS-PTDH or TS-PTDH variants were grown in 2×YT media with kanamycin and ampicillin at 37° C. The IPTG-inducible expression, Ni-affinity purification, and protein concentration determination was conducted as described above.
(§2) The steady-state kinetic parameters toward the coenzymes were measured by spiking purified protein into a 100 μL reaction mixture containing 100 mM MOPS, pH 7.25, 10 mM sodium Pt, and varied cofactor concentrations from 0.02 mM to 5 mM at 25° C. The kinetic parameters were measured by monitoring the […] of reduced coenzyme at 340 nm. Data were fitted to the Michaelis-Menten equation to generate estimates of KM and kcat values.

The nature of data set [3]: Steady-state kinetics of TS-PTDH variants with NADP^+. Type of data set: biochemical. The conditions noted are these: 100 mM MOPS, pH 7.25, 10 mM sodium phosphite, varied cofactor concentrations; n = 3. As for the experimental part: as §1, §2
Data set [4] can be described thus: Steady-state kinetics of TS-PTDH variants with NAD^+. In kind it is biochemical. The conditions noted are these: 100 mM MOPS, pH 7.25, 10 mM sodium phosphite, varied cofactor concentrations; n = 3. How it is done: as §1, §2
Data set [5] in a line: BNA(H)-mediated PTDH biotransformation with TsOYE. Type of data set: biochemical. How it is done: BNA(H)-Mediated PTDH Biotransformation. Reactions with BNA^+, see FIG. 10D, contained 100 mM MOPS-NaOH at pH 7.6, 10 mM KIP, 100 mM sodium phosphite, and 2% v/v DMSO. BNA^+Cl^−, prepared by refluxing equimolar amounts of nicotinamide and benzyl chloride in acetonitrile overnight, followed by precipitation with diethyl ether on ice was supplied to the reactions at final concentrations of 0, 5, 10, or 20 mM. Reactions were initiated by spiking TsOYE and the appropriate TS-PTDH variant to a final concentration of 10 μM, each. Reaction mixtures were incubated at 30° C. on a Thermomixer C (Eppendorf) with shaking at 900 rpm for 24 h, extracted with 500 μL ethyl acetate containing 5 mM n-dodecane, and analyzed by GC-FID. The cycling system with no BNA was used to determine the background activity of the cycling systems. This value was subtracted from the final levodione concentrations in the 5-, 10-, and 20-mM samples to determine the BNA(H)^− specific levodione production. Concentrations of levodione product were determined using a calibration line (0-10 mM, 6 levels, using n-dodecane as internal standard). The y-intercept of the calibration line was forced through 0.
For BNA(H)-mediated reactions, gas chromatography analyses were performed on a GC-2010 (Shimadzu, Japan) equipped with an AOC-20i auto injector and a flame ionization detector (FID), using a CP-Sil 5 column (25 m×0.25 mm×[…]). 1 μL of sample was injected with a split ratio of 100:1 and injector at 340° C. The FID was maintained at 360° C. Nitrogen was used as the carrier gas, with a linear velocity of 30 cm/s. The oven was held at 135° C. for 1 min, ramped at 15° C./min to 215° C., then 30° C./min to 345° C., and held at 345° C. for 1 min.
Expression and Purification of Proteins for BNA(H)-Mediated Biotransformation Reactions. E. coli BL21(DE3) strains were transformed with the plasmids containing the TS-PTDH variants and grown on LB-agar plates containing ampicillin at 37° C. overnight. An overnight culture, 15 mL LB supplemented with ampicillin, was inoculated with a single colony, and grown at 37° C., 170 rpm overnight. 2 L baffled shake-flasks with 250 mL of 2×YT media containing 200 μg/mL ampicillin, were inoculated with the overnight culture, grown at 37° C., 170 rpm until OD600 of ˜1.0, induced with IPTG (0.5 mM), and grown at 30° C. and 170 rpm for 24 h. Cells were harvested by centrifugation at 18,000×g, 4° C., 10 min and stored at −20° C. until purification.
The pellet was resuspended in four volumes loading buffer (50 mM sodium phosphate, 300 mM sodium chloride, 10 mM imidazole, pH 7.7), and lysed on ice by sonication (Branson sonifier 250; 15 min total, 40% duty cycle, output control 3.5, 2 mm tip). The lysate was clarified (21,000×g, 4° C., 30 min followed by 0.2 μm filtration), and loaded (1 mL/min) onto a Nickel-HisTrap FF crude (1 mL) column, washed with loading buffer (12 column volumes, CV), followed by a step with 10% elution buffer (loading buffer containing 250 mM imidazole; 12 CV). The protein was then eluted with 100% elution buffer and collected in fractions of 0.5 mL. Fractions containing protein were combined and dialyzed against ice-cold dialysis buffer (50 mM sodium phosphate, pH 7.7, 800 mL); the buffer was renewed after the first 2 h of dialysis. Following the dialysis, the protein was mixed with glycerol (20% v/v final concentration). Enzyme concentrations were estimated by the absorbance at 280 nm (non-denatured protein), using predicted extinction coefficients (wild type and LY-13: 26470, LY-7: […]; web.expasy.org/protparam/). The protein was aliquoted, flash frozen in liquid nitrogen, and stored at −80° C. until use. […]

Where [6] appears, read: varied cofactor concentrations, n = 3.

B1: TS-PTDH A155N: Pseudomonas stutzeri phosphite dehydrogenase with A155N substitution (SEQ ID NO:3) (protein)
chain: MLPKLVITHRVHEEILQLLAPHCELITNQTDSTLTREEILRRCRDAQAMMAFMPDRVDADFLQACPELRVIGCALKGFDNFDVDACTARGVWLTFVPDLLTVPTAELAIGLAVGLGRHLRAADAFVRSGKFRGWQPRFYGTGLDNATVGFLGMGNIGLAMADRLQGWGATLQYHEAKALDTQTEQRLGLRQVACSELFASSDFILLALPLNADTLHLVNAELLALVRPGALLVNPCRGSVVDEAAVLAALERGQLGGYAADVFEMEDWARADRPQQIDPALLAHPNTLFTPHIGSAVRAVRLEIERCAAQNILQALAGERPINAVNRLPKANPAAD
A word on the Km: it is the concentration of substrate that gives half-maximal velocity. As to B1, in data set [1], the “growth restoration, co-expression with NMNH-specific Gor Ortho” value is reported as “restored growth at a low level”. In addition, in data set [2] (enzyme could not be saturated), the Km is more than 5000 µM. Moreover, the “increase in catalytic efficiency for NMN^+ compared to TS-PTDH (wild type enzyme)” value in data set [2] (vs TS-PTDH) is approximately 30 fold. In data set [3], the Km stood at 630 ± 70 µM and the “NADP^+ kcat” value is 0.88 ± 0.08 s⁻¹. Also, in data set [4], the Km is 80 ± 10 µM and the “NAD^+ kcat” value stood at 1.46 ± 0.13 s⁻¹.

B2: LY-6: phosphite dehydrogenase variant with A155N, E175Q, A176S (SEQ ID NO:4) (protein)
chain: MLPKLVITHRVHEEILQLLAPHCELITNQTDSTLTREEILRRCRDAQAMMAFMPDRVDADFLQACPELRVIGCALKGFDNFDVDACTARGVWLTFVPDLLTVPTAELAIGLAVGLGRHLRAADAFVRSGKFRGWQPRFYGTGLDNATVGFLGMGNIGLAMADRLQGWGATLQYHQSKALDTQTEQRLGLRQVACSELFASSDFILLALPLNADTLHLVNAELLALVRPGALLVNPCRGSVVDEAAVLAALERGQLGGYAADVFEMEDWARADRPQQIDPALLAHPNTLFTPHIGSAVRAVRLEIERCAAQNILQALAGERPINAVNRLPKANPAAD
As for B2, in data set [2] (setting [6]), the Km is 1100 ± 100 µM and the “NMN^+ kcat” value worked out at 0.18 ± 0.01 s⁻¹. For the same molecule, the “increased catalytic efficiency (kcat/Km) for NMN^+ compared to TS-PTDH A155N” value in data set [2] was approximately 17 fold. Also, in data set [3], the Km turned out to be 50 ± 10 µM and the “NADP^+ kcat” value came out at 0.95 ± 0.05 s⁻¹. Moreover, in data set [4], the Km came out at 110 ± 10 µM and the “NAD^+ kcat” value came out at 1.04 ± 0.08 s⁻¹.

B3: LY-7: phosphite dehydrogenase variant with A155N, E175W, A176G, L208V (SEQ ID NO:5) (protein)
chain: MLPKLVITHRVHEEILQLLAPHCELITNQTDSTLTREEILRRCRDAQAMMAFMPDRVDADFLQACPELRVIGCALKGFDNFDVDACTARGVWLTFVPDLLTVPTAELAIGLAVGLGRHLRAADAFVRSGKFRGWQPRFYGTGLDNATVGFLGMGNIGLAMADRLQGWGATLQYHWGKALDTQTEQRLGLRQVACSELFASSDFILLAVPLNADTLHLVNAELLALVRPGALLVNPCRGSVVDEAAVLAALERGQLGGYAADVFEMEDWARADRPQQIDPALLAHPNTLFTPHIGSAVRAVRLEIERCAAQNILQALAGERPINAVNRLPKANPAAD
Regarding B3, in data set [2] (setting [6]), the Km was found to be 1400 ± 100 µM and the “NMN^+ kcat” value came out at 0.16 ± 0.01 s⁻¹. Further, the “increased catalytic efficiency (kcat/Km) for NMN^+ compared to TS-PTDH A155N” value in data set [2] is given as approximately 11 fold. In data set [3], the Km is 110 ± 10 µM and the “NADP^+ kcat” value stood at 0.56 ± 0.03 s⁻¹. Further, the “activity / cycling with BNA^+ compared to wild type” value in data set [5] is reported as “enhanced activity for BNA^+ reduction”. In addition, the “response of biotransformation efficiency to BNA^+ concentration” value in data set [5] (0, 5, 10, or 20 mM BNA^+) was “cofactor dose-dependent response”. Besides, the “utilization of the BNA^+ pool relative to the wild type protein” value in data set [5] (20 mM BNA^+ supplementation, TsOYE, 24 h) was “improved utilization of the BNA^+ pool”. Further, in data set [4], the Km amounted to 750 ± 30 µM and the “NAD^+ kcat” value came out at 0.71 ± 0.04 s⁻¹.

The values are drawn from patent US20230322857A1, “RECOMBINANTLY ENGINEERED POLYPEPTIDES CAPABLE OF RECYCLING NONCANONICAL COFACTORS” (The Regents of the University of California, priority 2022, published 2023).
